{"source": "patent US20240034785A1", "about": "“RXR-ALPHA BINDERS AND RXR-ALPHA/PLK1 MODULATORS” (NUCMITO PHARMACEUTICALS CO. LTD., priority 2020, published 2024)", "molecular_target": "T1, polo-like kinase 1 (PLK1), full-length (human, UniProt P53350 1-603)", "T1 construct": "Endogenous, FLAG-tagged and His-tagged forms are merged here; also called FLAG-PLK1; Flag-PLK1", "assay": "CoIP of FLAG-PLK1 with Myc-RXRα mutants in HeLa cells (FIG. 27)", "data": [{"binder": "RXRα-S56A/S70A (RXRα-2A) (receptor, Myc-tagged (CoIP) and GST-fused (kinase assay) forms are merged; also called RXR-S56A/S70A(2A); GST-RXRα-2A) MDTKHFLPLDFSTQVNSSLTSPTGRGSMAAPSLHPSLGPGIGSPGQLHSPISTLSAPINGMGPPFSVISAPMGPHSMSVPTTPTLGFSTGSPQLSSPMNPVSSSEDIKPPLGLNGVLKVPAHPSGNMASFTKHICAICGDRSSGKHYGVYSCEGCKGFFKRTVRKDLTYTCRDNKDCLIDKRQRNRCQYCRYQKCLAMGMKREAVQEERQRGKDRNENEVESTSSANEDMPVERILEAELAVEPKTETYVEANMGLNPSSPNDPVTNICQAADKQLFTLVEWAKRIPHFSELPLDDQVILLRAGWNELLIASFSHRSIAVKDGILLATGLHVHRNSAHSAGVGAIFDRVLTELVSKMRDMQMDKTELGCLRAIVLFNPDSKGLSNPAEVEALREKVYASLEAYCKHKYPEQPGRFAKLLLRLPALRSIGLKCLEHLFFFKLIGDTPIDTFLMEMLEAPHQMT", "values": [{"measurement": "binding result", "result": "no binding"}]}]}
